# Measurements: IntAct's records for PubMed 16525023
# B1: 1-phosphatidylinositol 4,5-bisphosphate phosphodiesterase gamma-1 (Homo sapiens), P19174 (parent)
# chain: MAGAASPCANGCGPGAPSDAEVLHLCRSLEVGTVMTLFYSKKSQRPERKTFQVKLETRQITWSRGADKIEGAIDIREIKEIRPGKTSRDFDRYQEDPAFRPDQSHCFVILYGMEFRLKTLSLQATSEDEVNMWIKGLTWLMEDTLQAPTPLQIERWLRKQFYSVDRNREDRISAKDLKNMLSQVNYRVPNMRFLRERLTDLEQRSGDITYGQFAQLYRSLMYSAQKTMDLPFLEASTLRAGERPELCRVSLPEFQQFLLDYQGELWAVDRLQVQEFMLSFLRDPLREIEEPYFFLDEFVTFLFSKENSVWNSQLDAVCPDTMNNPLSHYWISSSHNTYLTGDQFSSESSLEAYARCLRMGCRCIELDCWDGPDGMPVIYHGHTLTTKIKFSDVLHTIKEHAFVASEYPVILSIEDHCSIAQQRNMAQYFKKVLGDTLLTKPVEISADGLPSPNQLKRKILIKHKKLAEGSAYEEVPTSMMYSENDISNSIKNGILYLEDPVNHEWYPHYFVLTSSKIYYSEETSSDQGNEDEEEPKEVSSSTELHSNEKWFHGKLGAGRDGRHIAERLLTEYCIETGAPDGSFLVRESETFVGDYTLSFWRNGKVQHCRIHSRQDAGTPKFFLTDNLVFDSLYDLITHYQQVPLRCNEFEMRLSEPVPQTNAHESKEWYHASLTRAQAEHMLMRVPRDGAFLVRKRNEPNSYAISFRAEGKIKHCRVQQEGQTVMLGNSEFDSLVDLISYYEKHPLYRKMKLRYPINEEALEKIGTAEPDYGALYEGRNPGFYVEANPMPTFKCAVKALFDYKAQREDELTFIKSAIIQNVEKQEGGWWRGDYGGKKQLWFPSNYVEEMVNPVALEPEREHLDENSPLGDLLRGVLDVPACQIAIRPEGKNNRLFVFSISMASVAHWSLDVAADSQEELQDWVKKIREVAQTADARLTEGKIMERRKKIALELSELVVYCRPVPFDEEKIGTERACYRDMSSFPETKAEKYVNKAKGKKFLQYNRLQLSRIYPKGQRLDSSNYDPLPMWICGSQLVALNFQTPDKPMQMNQALFMTGRHCGYVLQPSTMRDEAFDPFDKSSLRGLEPCAISIEVLGARHLPKNGRGIVCPFVEIEVAGAEYDSTKQKTEFVVDNGLNPVWPAKPFHFQISNPEFAFLRFVVYEEDMFSDQNFLAQATFPVKGLKTGYRAVPLKNNYSEDLELASLLIKIDIFPAKENGDLSPFSGTSLRERGSDASGQLFHGRAREGSFESRYQQPFEDFRISQEHLADHFDSRERRAPRRTRVNGDNRL
# Variants of: B1
# Conditions: with akt1_human AKT1, P31749
# Sequence of akt1_human AKT1, P31749 (P31749 whole entry): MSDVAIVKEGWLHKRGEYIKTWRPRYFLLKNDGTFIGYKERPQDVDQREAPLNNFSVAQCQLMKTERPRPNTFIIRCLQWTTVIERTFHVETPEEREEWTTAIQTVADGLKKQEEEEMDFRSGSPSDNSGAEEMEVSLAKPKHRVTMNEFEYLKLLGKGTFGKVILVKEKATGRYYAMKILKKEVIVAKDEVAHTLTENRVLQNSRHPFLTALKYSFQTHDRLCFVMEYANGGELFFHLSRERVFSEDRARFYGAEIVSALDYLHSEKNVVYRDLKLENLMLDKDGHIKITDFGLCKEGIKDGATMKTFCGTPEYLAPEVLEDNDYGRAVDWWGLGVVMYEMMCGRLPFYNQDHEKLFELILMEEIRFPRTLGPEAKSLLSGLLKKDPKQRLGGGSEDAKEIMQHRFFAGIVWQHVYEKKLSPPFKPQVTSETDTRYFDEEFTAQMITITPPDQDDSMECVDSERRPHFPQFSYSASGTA
row,Variant,effect of a mutation on the interaction
1,Y771F,decreasing interaction
2,Y783F,disrupting interaction
